# Experimental data published in the supplement of paper PMC7125110.
# ± gives the standard error. Fewer inactive variants are shown than the library holds.
# B1: glmS ribozyme (parent)
# chain: AUAAAAGCGCCAGAACUACAGAAAUGUAGUUGACGAGGAGGAGGUUUAUCGAAUUUUCGGCGGAUGCCUCCAAA
# How the values were obtained:
# Details in all cases: with glucosamine-6-phosphate
# glucosamine-6-phosphate [1] = variants of: B1; experiment: self-cleavage kobs at 40 uM GlcN6P; higher = faster cleavage; RNA array
# Summary of the method: (§1)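 Glucosamine-6-phosphate in HEPES/KCl/Mg(OAc)2 buffer, at 40 μM to 10 mM, was flowed over barcoded ribozyme variants transcribed in situ by E. coli RNA polymerase on sequenced MiSeq chips. Tracking was through a hybridised Cy3 probe at 37 °C. kobs, kcat and KM came from exponential decay fits and weighted Michaelis–Menten fits of normalised per-tile medians.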
# glucosamine-6-phosphate [2] = variants of: B1; experiment: self-cleavage kobs at 160 uM GlcN6P; higher = faster cleavage; RNA array
# Summary of the method: as §1
# glucosamine-6-phosphate [3] = variants of: B1; experiment: self-cleavage kobs at 640 uM GlcN6P; higher = faster cleavage; RNA array
# Summary of the method: as §1
# glucosamine-6-phosphate [4] = variants of: B1; experiment: self-cleavage kobs at 2500 uM GlcN6P; higher = faster cleavage; RNA array
# Summary of the method: as §1
# glucosamine-6-phosphate [5] = variants of: B1; experiment: self-cleavage kobs at 10000 uM GlcN6P; higher = faster cleavage; RNA array
# Summary of the method: as §1
Variant,self-cleavage kobs at 40 uM GlcN6P (glucosamine-6-phosphate [1]) [s⁻¹],self-cleavage kobs at 160 uM GlcN6P (glucosamine-6-phosphate [2]) [s⁻¹],self-cleavage kobs at 640 uM GlcN6P (glucosamine-6-phosphate [3]) [s⁻¹],self-cleavage kobs at 2500 uM GlcN6P (glucosamine-6-phosphate [4]) [s⁻¹],self-cleavage kobs at 10000 uM GlcN6P (glucosamine-6-phosphate [5]) [s⁻¹]
U31G U49G C50G,< 1e-05,–,–,–,–
A12U U31C G41A G60U,< 1e-05,–,–,–,–
G35U G40U,< 1e-05,< 1e-05,< 1e-05,< 1e-05,< 1e-05
G41C G63A A64G,< 1e-05,–,–,–,< 1e-05
G29U G51C,< 1e-05,–,< 1e-05,–,< 1e-05
A12C G40A,0.000112 ± 2.1e-05,0.000305 ± 8e-05,0.000633 ± 0.00023,0.00149 ± 0.00055,0.00569 ± 0.0013
A42G G51A A52U,< 1e-05,–,–,< 1e-05,–
G29A G66A,7.16e-05 ± 1.8e-05,–,–,–,0.00305 ± 0.00076
C10U A33U A52U,< 1e-05,–,< 1e-05,–,< 1e-05
G7U A42U,< 1e-05,–,< 1e-05,< 1e-05,< 1e-05
G41A U49C,< 1e-05,< 1e-05,< 1e-05,< 1e-05,–
C16U G29C G37A G44A,< 1e-05,–,–,–,–
A12C G26U,0.000614 ± 0.00014,–,0.00546 ± 0.0013,0.00321 ± 0.00099,0.0113 ± 0.0032
C8G G66U,< 1e-05,< 1e-05,< 1e-05,< 1e-05,–
G9A A15U G63U,< 1e-05,–,–,–,–
A14U A36C,< 1e-05,–,< 1e-05,–,< 1e-05
G7U C58G C68G,0.000149 ± 4.5e-05,0.000633 ± 0.00028,0.00042 ± 0.00015,0.00158 ± 0.00066,0.000116 ± 2.5e-05
G60U C70A,< 1e-05,< 1e-05,< 1e-05,–,< 1e-05
C11A U46A,< 1e-05,–,< 1e-05,–,< 1e-05
A12U U45G U46A,0.000262 ± 8.5e-05,–,–,0.00886 ± 0.0031,–
A52C G60U,< 1e-05,–,–,–,< 1e-05
U31G C50G,6.22e-05 ± 1.5e-05,0.000172 ± 3e-05,0.000175 ± 4.5e-05,0.00013 ± 1.9e-05,3.31e-05 ± 1.1e-05
